In publication PMC5490192, “An L-threonine transaldolase is required for L-threo-β-hydroxy-α-amino acid assembly during obafluorin biosynthesis” (Nature Communications, 2017):

T1: His6-ObaG (Pseudomonas fluorescens, UniProt A0A1X9LWZ7)
T1 construct: gene obiH
T1 sequence (A0A1X9LWZ7 1-440): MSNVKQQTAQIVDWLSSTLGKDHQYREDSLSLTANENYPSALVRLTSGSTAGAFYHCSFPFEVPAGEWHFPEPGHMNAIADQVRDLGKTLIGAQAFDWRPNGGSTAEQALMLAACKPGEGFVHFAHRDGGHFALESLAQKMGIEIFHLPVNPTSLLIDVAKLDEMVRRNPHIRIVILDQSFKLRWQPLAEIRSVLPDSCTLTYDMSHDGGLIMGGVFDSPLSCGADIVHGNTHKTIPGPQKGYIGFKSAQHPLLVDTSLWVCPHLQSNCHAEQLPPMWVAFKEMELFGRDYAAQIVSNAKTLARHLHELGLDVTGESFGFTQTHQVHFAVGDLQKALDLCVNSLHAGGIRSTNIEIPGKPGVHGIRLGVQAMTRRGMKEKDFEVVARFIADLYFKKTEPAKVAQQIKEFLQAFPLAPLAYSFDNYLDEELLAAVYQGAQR

B1: His6-ObaG (Pseudomonas fluorescens) (protein)
chain: T1 sequence (A0A1X9LWZ7 1-440)

Tests used:
[1] = target: T1, His6-ObaG; test: UV/Vis absorption spectra; NaBH4 reduction of internal aldimine; assay type: binding; conditions: covalent (internal aldimine); pH 7.8; excess PLP removed
[2] = substrate: C[C@@H](O)[C@H](N)C(=O)O; test: discontinuous HPLC L-TTA assay, Michaelis-Menten fit; assay type: biochemical, Pseudomonas fluorescens; conditions: co-substrate 4-nitrophenylacetaldehyde (10 mM in standard assay), L-threonine 1–200 mM, 25 μM enzyme, pH 7.8, 27 °C, PLP 0.4 mM, MgCl2 15 mM, NaCl 300 mM

Molecule | UV/Vis absorption spectra; NaBH4 reduction of internal aldimine [1] | Km [2] [mM] | kcat [2] [s⁻¹]
Cc1ncc(COP(=O)(O)O)c(C=O)c1O [pyridoxal-5′-phosphate] | these results strongly support ObaG being a PLP-dependent enzyme | – | –
B1 | – | 40.2 ± 3.8 | 1.05 ± 0.0317
